Test results as given in patent US20250215412A1 (NOVOZYMES A S, published 2025).

Target: T1, Chryseobacterium sp-62563 deamidase polypeptide (second polypeptide, deamidase domain), wildtype (Chryseobacterium sp-62563)
T1 sequence: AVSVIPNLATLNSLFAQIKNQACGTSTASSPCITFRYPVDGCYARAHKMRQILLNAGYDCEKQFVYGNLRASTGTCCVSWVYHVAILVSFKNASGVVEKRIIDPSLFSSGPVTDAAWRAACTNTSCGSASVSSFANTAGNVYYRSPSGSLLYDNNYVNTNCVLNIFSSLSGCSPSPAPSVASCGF
Assay: cell-based or functional assay

NanoDSF thermal unfolding temperature | Relative activity of maturated deamidase (% initial rate) | Binder
79.1 ° C. | 67 | Chryseobacterium sp-62563 propeptide P69M (protein) NQDPNLVAKESNETAMKDFGKTVPVGIEKEDGKFKISFMVTAQPYEIKDSKENAAYISMIKTAVENETMIHVFLKANTNEIAKVDKATDDDIRYFKSVFTKEVKEENRK
– | > 100 | Chryseobacterium sp-62563 propeptide V98E (protein) NQDPNLVAKESNETAMKDFGKTVPVGIEKEDGKFKISFMVTAQPYEIKDSKENAAYISMIKTAVENETPIHVFLKANTNEIAKVDKATDDDIRYFKSEFTKEVKEENRK
– | 73 | Chryseobacterium sp-62563 propeptide K96Y (protein) NQDPNLVAKESNETAMKDFGKTVPVGIEKEDGKFKISFMVTAQPYEIKDSKENAAYISMIKTAVENETPIHVFLKANTNEIAKVDKATDDDIRYFYSVFTKEVKEENRK
– | 51 | Chryseobacterium sp-62563 propeptide K96W (protein) NQDPNLVAKESNETAMKDFGKTVPVGIEKEDGKFKISFMVTAQPYEIKDSKENAAYISMIKTAVENETPIHVFLKANTNEIAKVDKATDDDIRYFWSVFTKEVKEENRK
78.5 ° C. | 33 | Chryseobacterium sp-62563 propeptide P69T (protein) NQDPNLVAKESNETAMKDFGKTVPVGIEKEDGKFKISFMVTAQPYEIKDSKENAAYISMIKTAVENETTIHVFLKANTNEIAKVDKATDDDIRYFKSVFTKEVKEENRK
– | 58 | Chryseobacterium sp-62563 propeptide F95W (protein) NQDPNLVAKESNETAMKDFGKTVPVGIEKEDGKFKISFMVTAQPYEIKDSKENAAYISMIKTAVENETPIHVFLKANTNEIAKVDKATDDDIRYWKSVFTKEVKEENRK
– | 34 | Chryseobacterium sp-62563 propeptide K96T (protein) NQDPNLVAKESNETAMKDFGKTVPVGIEKEDGKFKISFMVTAQPYEIKDSKENAAYISMIKTAVENETPIHVFLKANTNEIAKVDKATDDDIRYFTSVFTKEVKEENRK
74.1 ° C. | > 100 | Chryseobacterium sp-62563 propeptide P69Q (protein) NQDPNLVAKESNETAMKDFGKTVPVGIEKEDGKFKISFMVTAQPYEIKDSKENAAYISMIKTAVENETQIHVFLKANTNEIAKVDKATDDDIRYFKSVFTKEVKEENRK
– | > 100 | Chryseobacterium sp-62563 propeptide F95S (protein) NQDPNLVAKESNETAMKDFGKTVPVGIEKEDGKFKISFMVTAQPYEIKDSKENAAYISMIKTAVENETPIHVFLKANTNEIAKVDKATDDDIRYSKSVFTKEVKEENRK
– | 71 | Chryseobacterium sp-62563 propeptide K96I (protein) NQDPNLVAKESNETAMKDFGKTVPVGIEKEDGKFKISFMVTAQPYEIKDSKENAAYISMIKTAVENETPIHVFLKANTNEIAKVDKATDDDIRYFISVFTKEVKEENRK
– | 95 | Chryseobacterium sp-62563 propeptide K96C (protein) NQDPNLVAKESNETAMKDFGKTVPVGIEKEDGKFKISFMVTAQPYEIKDSKENAAYISMIKTAVENETPIHVFLKANTNEIAKVDKATDDDIRYFCSVFTKEVKEENRK
– | 30 | Chryseobacterium sp-62563 propeptide K96H (protein) NQDPNLVAKESNETAMKDFGKTVPVGIEKEDGKFKISFMVTAQPYEIKDSKENAAYISMIKTAVENETPIHVFLKANTNEIAKVDKATDDDIRYFHSVFTKEVKEENRK
– | 61 | Chryseobacterium sp-62563 propeptide F95L (protein) NQDPNLVAKESNETAMKDFGKTVPVGIEKEDGKFKISFMVTAQPYEIKDSKENAAYISMIKTAVENETPIHVFLKANTNEIAKVDKATDDDIRYLKSVFTKEVKEENRK
– | 51 | Chryseobacterium sp-62563 propeptide F95M (protein) NQDPNLVAKESNETAMKDFGKTVPVGIEKEDGKFKISFMVTAQPYEIKDSKENAAYISMIKTAVENETPIHVFLKANTNEIAKVDKATDDDIRYMKSVFTKEVKEENRK
– | > 100 | Chryseobacterium sp-62563 propeptide K96E (protein) NQDPNLVAKESNETAMKDFGKTVPVGIEKEDGKFKISFMVTAQPYEIKDSKENAAYISMIKTAVENETPIHVFLKANTNEIAKVDKATDDDIRYFESVFTKEVKEENRK
– | 55 | Chryseobacterium sp-62563 propeptide K96N (protein) NQDPNLVAKESNETAMKDFGKTVPVGIEKEDGKFKISFMVTAQPYEIKDSKENAAYISMIKTAVENETPIHVFLKANTNEIAKVDKATDDDIRYFNSVFTKEVKEENRK
– | > 100 | Chryseobacterium sp-62563 propeptide F95K (protein) NQDPNLVAKESNETAMKDFGKTVPVGIEKEDGKFKISFMVTAQPYEIKDSKENAAYISMIKTAVENETPIHVFLKANTNEIAKVDKATDDDIRYKKSVFTKEVKEENRK

NanoDSF thermal unfolding temperature | Relative activity of maturated deamidase (% initial rate) | Binder
– | > 100 | Chryseobacterium sp-62563 propeptide F95R (protein) NQDPNLVAKESNETAMKDFGKTVPVGIEKEDGKFKISFMVTAQPYEIKDSKENAAYISMIKTAVENETPIHVFLKANTNEIAKVDKATDDDIRYRKSVFTKEVKEENRK
– | 27 | Chryseobacterium sp-62563 propeptide F95Y (protein) NQDPNLVAKESNETAMKDFGKTVPVGIEKEDGKFKISFMVTAQPYEIKDSKENAAYISMIKTAVENETPIHVFLKANTNEIAKVDKATDDDIRYYKSVFTKEVKEENRK
– | 68 | Chryseobacterium sp-62563 propeptide V98A (protein) NQDPNLVAKESNETAMKDFGKTVPVGIEKEDGKFKISFMVTAQPYEIKDSKENAAYISMIKTAVENETPIHVFLKANTNEIAKVDKATDDDIRYFKSAFTKEVKEENRK
– | 65 | Chryseobacterium sp-62563 propeptide V98C (protein) NQDPNLVAKESNETAMKDFGKTVPVGIEKEDGKFKISFMVTAQPYEIKDSKENAAYISMIKTAVENETPIHVFLKANTNEIAKVDKATDDDIRYFKSCFTKEVKEENRK
– | > 100 | Chryseobacterium sp-62563 propeptide K96Q (protein) NQDPNLVAKESNETAMKDFGKTVPVGIEKEDGKFKISFMVTAQPYEIKDSKENAAYISMIKTAVENETPIHVFLKANTNEIAKVDKATDDDIRYFQSVFTKEVKEENRK
77.7 ° C. | – | Chryseobacterium sp-62563 propeptide P69S (protein) NQDPNLVAKESNETAMKDFGKTVPVGIEKEDGKFKISFMVTAQPYEIKDSKENAAYISMIKTAVENETSIHVFLKANTNEIAKVDKATDDDIRYFKSVFTKEVKEENRK
– | 45 | Chryseobacterium sp-62563 propeptide K96M (protein) NQDPNLVAKESNETAMKDFGKTVPVGIEKEDGKFKISFMVTAQPYEIKDSKENAAYISMIKTAVENETPIHVFLKANTNEIAKVDKATDDDIRYFMSVFTKEVKEENRK
– | 50 | Chryseobacterium sp-62563 propeptide K96L (protein) NQDPNLVAKESNETAMKDFGKTVPVGIEKEDGKFKISFMVTAQPYEIKDSKENAAYISMIKTAVENETPIHVFLKANTNEIAKVDKATDDDIRYFLSVFTKEVKEENRK
– | 85 | Chryseobacterium sp-62563 propeptide F95N (protein) NQDPNLVAKESNETAMKDFGKTVPVGIEKEDGKFKISFMVTAQPYEIKDSKENAAYISMIKTAVENETPIHVFLKANTNEIAKVDKATDDDIRYNKSVFTKEVKEENRK
– | 93 | Chryseobacterium sp-62563 propeptide F95T (protein) NQDPNLVAKESNETAMKDFGKTVPVGIEKEDGKFKISFMVTAQPYEIKDSKENAAYISMIKTAVENETPIHVFLKANTNEIAKVDKATDDDIRYTKSVFTKEVKEENRK
– | 30 | Chryseobacterium sp-62563 propeptide S97R (protein) NQDPNLVAKESNETAMKDFGKTVPVGIEKEDGKFKISFMVTAQPYEIKDSKENAAYISMIKTAVENETPIHVFLKANTNEIAKVDKATDDDIRYFKRVFTKEVKEENRK
– | 54 | Chryseobacterium sp-62563 propeptide V98H (protein) NQDPNLVAKESNETAMKDFGKTVPVGIEKEDGKFKISFMVTAQPYEIKDSKENAAYISMIKTAVENETPIHVFLKANTNEIAKVDKATDDDIRYFKSHFTKEVKEENRK
– | 95 | Chryseobacterium sp-62563 propeptide K96F (protein) NQDPNLVAKESNETAMKDFGKTVPVGIEKEDGKFKISFMVTAQPYEIKDSKENAAYISMIKTAVENETPIHVFLKANTNEIAKVDKATDDDIRYFFSVFTKEVKEENRK
– | 66 | Chryseobacterium sp-62563 propeptide F95V (protein) NQDPNLVAKESNETAMKDFGKTVPVGIEKEDGKFKISFMVTAQPYEIKDSKENAAYISMIKTAVENETPIHVFLKANTNEIAKVDKATDDDIRYVKSVFTKEVKEENRK
– | > 100 | Chryseobacterium sp-62563 propeptide V98G (protein) NQDPNLVAKESNETAMKDFGKTVPVGIEKEDGKFKISFMVTAQPYEIKDSKENAAYISMIKTAVENETPIHVFLKANTNEIAKVDKATDDDIRYFKSGFTKEVKEENRK
– | 41 | Chryseobacterium sp-62563 propeptide K96V (protein) NQDPNLVAKESNETAMKDFGKTVPVGIEKEDGKFKISFMVTAQPYEIKDSKENAAYISMIKTAVENETPIHVFLKANTNEIAKVDKATDDDIRYFVSVFTKEVKEENRK
